Laboratory results from patent US20180327506A1 (AbbVie / Abbott, published 2018).
Each block holds one binder with its values, some of them ahead of it.

How the values were obtained:
[1] = biological target: T1, human EMR2 as naturally expressed on primary and PDX tumor cells, blood and bone marrow cells and hematologic … (human, UniProt Q9UHX3 24-823); assay: flow cytometry on AML33p0 cells, against isotype control
T1 construct: Endogenous protein; also called hEMR2; CD312
T1 sequence: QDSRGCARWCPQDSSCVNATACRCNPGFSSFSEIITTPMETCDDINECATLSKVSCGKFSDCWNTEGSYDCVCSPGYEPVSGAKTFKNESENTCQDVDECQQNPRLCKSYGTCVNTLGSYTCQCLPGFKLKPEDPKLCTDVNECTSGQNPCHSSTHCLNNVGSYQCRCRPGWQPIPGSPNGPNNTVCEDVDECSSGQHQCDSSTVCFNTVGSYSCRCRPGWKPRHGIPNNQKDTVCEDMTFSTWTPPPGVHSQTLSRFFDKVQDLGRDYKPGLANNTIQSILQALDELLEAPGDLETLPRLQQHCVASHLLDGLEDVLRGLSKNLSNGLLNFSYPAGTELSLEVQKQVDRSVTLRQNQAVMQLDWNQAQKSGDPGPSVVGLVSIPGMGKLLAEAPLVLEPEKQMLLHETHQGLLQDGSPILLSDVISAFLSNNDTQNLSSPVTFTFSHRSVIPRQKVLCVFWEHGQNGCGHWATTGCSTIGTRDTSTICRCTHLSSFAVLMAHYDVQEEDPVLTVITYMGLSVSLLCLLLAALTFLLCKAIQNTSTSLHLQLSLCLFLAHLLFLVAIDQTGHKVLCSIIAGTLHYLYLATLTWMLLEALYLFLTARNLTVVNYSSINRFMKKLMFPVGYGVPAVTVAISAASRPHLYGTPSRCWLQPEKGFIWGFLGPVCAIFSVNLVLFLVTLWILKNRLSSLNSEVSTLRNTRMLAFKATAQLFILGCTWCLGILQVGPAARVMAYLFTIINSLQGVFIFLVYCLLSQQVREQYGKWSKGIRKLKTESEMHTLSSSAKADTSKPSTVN
Description: (§1) AML PDX samples were harvested by extracting both femora and tibiae from a mouse. After removing any attached muscle tissue the bones were combined and grinded up using a mortar and pistil to release the bone marrow from the rest of the bone. Cell suspensions were harvested and red blood cells lysed by exposure to a hypotonic ammonium-chloride-potassium solution (ACK). After 5 min incubation on ice the red blood cell lysis was stopped by adding 2% fetal bovine serum in PBS buffer (FSM), cells harvested by centrifugation and any tissue debris filtered out using a nylon mesh. Primary human AML samples were obtained cryopreserved as Ficol isolated mononuclear cells, thawed, washed once in FSM and used for analysis. Single cell suspensions were incubated with 4′,6-diamidino-2-phenylindole (DAPI) to detect dead cells, anti-human CD45 and CD33 to identify human leukemic cells. […] In order to partition bulk AML leukemic populations into NTG and CSC subpopulations, the PDX tumor cells were further incubated with anti-human CD34 and CD38 or candidate AML CSC markers.

[2] = biological target: T1, human EMR2 as naturally expressed on …; assay: flow cytometry on AML40p0 cells, against isotype control
Description: AML PDX samples were harvested by extracting both femora and tibiae from a mouse. After removing any attached muscle tissue the bones were combined and grinded up using a mortar and pistil to release the bone marrow from the rest of the bone. Cell suspensions were harvested and red blood cells lysed by exposure to a hypotonic ammonium-chloride-potassium solution (ACK). After 5 min incubation on ice the red blood cell lysis was stopped by adding 2% fetal bovine serum in PBS buffer (FSM), cells harvested by centrifugation and any tissue debris filtered out using a nylon mesh. Primary human AML samples were obtained cryopreserved as Ficol isolated mononuclear cells, thawed, washed once in FSM and used for analysis. Single cell suspensions were incubated with 4′,6-diamidino-2-phenylindole (DAPI) to detect dead cells, anti-human CD45 and CD33 to identify human leukemic cells. The resulting single cell suspensions comprised a bulk sample of tumor and non-tumor cells including both NTG cells and CSCs. In order to partition bulk AML leukemic populations into NTG and CSC subpopulations, the PDX tumor cells were further incubated with anti-human CD34 and CD38 or candidate AML CSC markers.

[3] = biological target: T2, full-length mature human EMR2 (residues Q24-N823) with N-terminal aspartic acid/lysine epitope tag, … (human, UniProt Q9UHX3 24-823); assay: flow cytometry on transduced HEK293T; 293 naive MFI 143
T2 construct: Built from NM_013447; The IgK signal peptide is not part of the mature protein; also called hEMR2; hEMR2-NFlag
T2 sequence: T1 sequence
Description: (§2) The exemplary antibodies were also tested using flow cytometry to determine their ability to associate with hEMR2, cEMR2 and CD97 expressed on the surface of cells.

[4] = biological target: T3, full-length mature cynomolgus EMR2 (residues Q24-N816) with N-terminal aspartic acid/lysine epitope tag, … (cynomolgus monkey (Macaca fascicularis), UniProt A0A2K5WL23 21-816); assay: as above
T3 construct: whole, on cells; also called cEMR2; cEMR2-NFlag
T3 sequence: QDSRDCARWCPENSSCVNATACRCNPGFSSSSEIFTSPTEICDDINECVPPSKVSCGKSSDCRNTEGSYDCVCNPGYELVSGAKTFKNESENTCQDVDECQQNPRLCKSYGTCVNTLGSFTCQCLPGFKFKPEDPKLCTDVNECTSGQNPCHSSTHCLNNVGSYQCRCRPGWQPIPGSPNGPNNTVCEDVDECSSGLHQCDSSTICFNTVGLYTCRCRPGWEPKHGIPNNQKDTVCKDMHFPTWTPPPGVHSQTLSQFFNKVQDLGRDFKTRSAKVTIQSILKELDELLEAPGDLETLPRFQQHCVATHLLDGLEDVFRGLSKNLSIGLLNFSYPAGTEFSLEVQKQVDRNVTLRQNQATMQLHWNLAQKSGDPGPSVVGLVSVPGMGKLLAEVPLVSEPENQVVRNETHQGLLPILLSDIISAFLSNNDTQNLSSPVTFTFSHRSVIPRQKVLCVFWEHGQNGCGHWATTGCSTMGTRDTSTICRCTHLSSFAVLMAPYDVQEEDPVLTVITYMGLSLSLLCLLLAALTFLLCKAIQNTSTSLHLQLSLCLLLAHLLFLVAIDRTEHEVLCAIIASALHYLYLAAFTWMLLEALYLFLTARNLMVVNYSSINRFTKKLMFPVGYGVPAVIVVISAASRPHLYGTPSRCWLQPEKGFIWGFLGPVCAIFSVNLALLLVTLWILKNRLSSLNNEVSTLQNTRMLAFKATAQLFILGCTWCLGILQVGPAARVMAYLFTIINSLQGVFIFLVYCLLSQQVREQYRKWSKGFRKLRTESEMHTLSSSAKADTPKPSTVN
Description: as §2

[5] = biological target: T4, full-length mature human CD97 (residues Q21-I845) with N-terminal aspartic acid/lysine epitope tag, … (human, UniProt P48960 21-835); assay: as above
T4 construct: whole, on cells; also called hCD97; hCD97-NFlag
T4 sequence (looked up): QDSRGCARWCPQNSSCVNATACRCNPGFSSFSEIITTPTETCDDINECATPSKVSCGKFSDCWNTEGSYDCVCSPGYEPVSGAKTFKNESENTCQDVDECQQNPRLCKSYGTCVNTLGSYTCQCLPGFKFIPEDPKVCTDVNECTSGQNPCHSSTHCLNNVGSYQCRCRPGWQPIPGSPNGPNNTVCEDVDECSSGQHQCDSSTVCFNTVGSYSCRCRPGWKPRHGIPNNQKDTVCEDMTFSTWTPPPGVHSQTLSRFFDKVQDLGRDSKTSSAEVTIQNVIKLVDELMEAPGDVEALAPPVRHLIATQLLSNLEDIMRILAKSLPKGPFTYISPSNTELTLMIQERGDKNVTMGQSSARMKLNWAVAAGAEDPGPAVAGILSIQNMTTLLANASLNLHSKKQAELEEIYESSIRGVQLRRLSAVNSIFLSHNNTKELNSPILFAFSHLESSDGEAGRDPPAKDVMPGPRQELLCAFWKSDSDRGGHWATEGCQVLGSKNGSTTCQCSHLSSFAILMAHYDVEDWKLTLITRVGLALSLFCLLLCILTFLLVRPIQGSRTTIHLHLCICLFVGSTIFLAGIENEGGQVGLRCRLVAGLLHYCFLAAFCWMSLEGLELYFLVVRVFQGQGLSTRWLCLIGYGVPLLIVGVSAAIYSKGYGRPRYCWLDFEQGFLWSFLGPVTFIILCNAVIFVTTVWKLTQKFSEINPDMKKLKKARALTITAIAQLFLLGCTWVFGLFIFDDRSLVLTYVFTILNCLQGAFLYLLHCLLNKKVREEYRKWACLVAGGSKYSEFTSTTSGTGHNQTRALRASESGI
Description: as §2

[6] = biological target: T1, human EMR2 as naturally expressed on …; assay: flow cytometry on AML23p2 PDX cells, against isotype control
Description: as §1

[7] = biological target: T2, full-length mature human EMR2 (residues …); assay: cell-based or functional assay
[8] = biological target: T3, full-length mature cynomolgus EMR2 …; assay: cell-based or functional assay
[9] = biological target: T4, full-length mature human CD97 (residues …); assay: cell-based or functional assay
[10] = biological target: T1, human EMR2 as naturally expressed on …; assay: flow cytometry on AML16-p4 PDX cells, against isotype control
Description: as §1

[11] = biological target: T1, human EMR2 as naturally expressed on …; assay: flow cytometry on AML37p0 cells, against isotype control
Description: as §1

[12] = biological target: T1, human EMR2 as naturally expressed on …; assay: flow cytometry on AML20p4 PDX cells, against isotype control
Description: as §1

[13] = biological target: T2, full-length mature human EMR2 (residues …); assay: flow cytometry on transduced HEK293T; 293 naive MFI 269
Description: as §2

[14] = biological target: T3, full-length mature cynomolgus EMR2 …; assay: as above
Description: as §2

[15] = biological target: T4, full-length mature human CD97 (residues …); assay: as above
Description: as §2

[16] = biological target: T2, full-length mature human EMR2 (residues …); assay: flow cytometry on transduced HEK293T; 293 naive MFI 109
Description: as §2

[17] = biological target: T3, full-length mature cynomolgus EMR2 …; assay: as above
Description: as §2

[18] = biological target: T4, full-length mature human CD97 (residues …); assay: as above
Description: as §2

ΔgMFI [1]: 457
ΔgMFI [2]: 2000
FC MFI [3]: 36600
FC MFI [4]: 38700
FC MFI [5]: 132
ΔgMFI [6]: 547
ΔgMFI [10]: 898
ΔgMFI [11]: 1610
ΔgMFI [12]: 475
B1: SC93.267 (antibody, V domains shown)
VH: EVQLQQSGPELVKPGASVRMSCKASGYTFTDYNMYWVKQSLGKSLEWIGYIYPNTGGATYNQKFKGKATLTVNKSSSTAFMELRSLTSEDSAVYYCGRGGLGPFAYWGQGTLVTVSA
VL: DIQMTQSPSSLSASLGGKVTITCRASQDINKFISWYQHRPGKGPRLLIHYASTLQPGIPSRFSGSGSGRDYSFSISNLEPEDIATYYCLQYDNLWTFGGGTKLEIR
notes: Murine hybridoma antibody with a kappa light chain; also called anti-hEMR2 antibody SC93.267
% live, FAB-saporin killing assay [7]: 15.6%
% live, FAB-saporin killing assay [8]: 27.8%
% live, FAB-saporin killing assay [9]: 89%

FC MFI [13]: 36400
FC MFI [14]: 43800
FC MFI [15]: 43300
B2: SC93.255 (antibody, V domains shown)
VH: QVQLQQSDAELVKPGSSVKISCKVSGFTFTDHTIHWMKQRPEQGLEWIGYIYPRDGNTKYNEKFTGKATLTADRSSSTAYMQLNSLTSEDSAVYFCASSNWAQWYFDIWGTGTTVTVSS
VL: DIQMTQSSSYLSVSLGGRVTITCKASDHINNWLAWYQQKPGNAPRLLIFGATSLETGVPSRFSGSGSGKDYTLSITSLQSEDVGTYYCQQYWSIPYTFGGGTKLEIK
notes: Murine hybridoma antibody with a kappa light chain
% live, FAB-saporin killing assay [7]: 12.1%
% live, FAB-saporin killing assay [8]: 9.63%
% live, FAB-saporin killing assay [9]: 9.09%

FC MFI [16]: 42600
FC MFI [17]: 37600
FC MFI [18]: 88.3
B3: SC93.256 (antibody, IgG2a, V domains shown)
VH: EVKLEESGGGLVQPGGSMKLSCAASGFTFSDAWMDWVRQSPEKGLEWVAEIRSKVNNHETYYAESVKGRFTISRDDSKSSVYLQMNSLRAEDTGIYYCIRNDYFDYWGQGTTLTVSS
VL: DIQMTQTTSSLSASLGDRVTISCSASQGIRNYLNWYQQKPDGTVKLLIYYTSRLHSGVPSRFSGSGSGTDYSLTISNLEPEDIATYYCQQYGKLPYTFGGGTKLEIK
notes: murine, IgG2a
% live, FAB-saporin killing assay [7]: 12.5%
% live, FAB-saporin killing assay [8]: 12.3%
% live, FAB-saporin killing assay [9]: 92.4%
